Source: patent US20240301038A1

B1: AB-009769 (antibody, V domains shown)
VH: EVQLVESGGGLVQPGGSLRLSCAASGFTFSSYWMSWVRQAPGKGLEWVANIKQDGSEKYYVDSVKGRFTISRDNAKNSLYLQMNSLRAEDTAVYYCARSPEVLWFGDPVLDNWFDPWGQGTLVTVSS
VL: SYELTQPPSVSVSPGQTARITCSGDALPKQYAYWYQQKPGQAPVLVIYKDSERPSGIPERFSGSSSGTTVTLTISGVQAEDEADYYCQSADSSGTYPVVFGGGTKLTVL
B2: AB-009346 (antibody, V domains shown)
VH: EVQLVESGGGVVRPGGSLRLSCAASGFTFDDYGMSWVRQAPGKGLEWVSGINWNGGSTGYADSVKGRFTISRDNAKNSLYLQMNSLRAEDTALYYCARWPLLGISGYYHYYMDVWGKGTTVTVSS
VL: QSALTQPRSVSGSPGQSVTISCTGTSSDVGGYNYVSWYQQHPGKAPKLMIYDVSKRPSGVPDRFSGSKSGNTASLTISGLQAEDEADYYCCSYAGSYTLLFGGGTKLIVL
B3: AB-009615 (antibody, V domains shown)
VH: QVQLVESGGGVVQPGRSLRLSCAASGFTFSSYGMHWVRQAPGKGLEWVAVIWYDGSNKYYADSVKGRFTISRDNSKNTLYLQMNSLRAEDTAVYYCAKVGSPYCSGGSCYSGYFDYWGQGTLVTVSS
VL: not shown
B4: AB-009281 (antibody, V domains shown)
VH: EVQLVETGGGLIQPGGSLRLSCAASGFTVSSNYMSWVRQAPGKGLEWVSVIYSGGSTYYADSVKGRFTISRDNSKNTLYLQMNSLRAEDTAVYYCARDLYYYGMDVWGQGTTVTVSS
VL: DIQLTQSPSFLSASVGDRVTITCRASQGISSYLAWYQQKPGKAPKLLIYAASTLQSGVPSRFSGSGSGTEFTLTISSLQPEDFATYYCQQLNSYPTFGQGTKVEIK
B5: AB-009620 (antibody, V domains shown)
VH: QITLKESGPTLVKPTQTLTLTCTFSGFSLSTSGVGVGWIRQPPGKALEWLALIYWDDDKRYSPSLKSRLTITKDTSKNQVVLTMTNMDPVDTATYYCAHHEVATVFDYWGQGTLVTVSS
VL: QSALTQPASVSGSPGQSITISCTGTSSDVGAYNYVSWYQQHPGKAPKLMIYEVSNRPSGVSNRFSGSKSGNTASLTISGLQAEDEADYYCSSYTSSSTVFGGGTKLTVL
B6: AB-009614 (antibody, V domains shown)
VH: QVQLVESGGGVVQPGRSLRLSCAASGFTFSSYGMHWVRQAPGKGLEWVAVISYDGSNKYYADSVKGRFTISRDNSKNTLYLQMNSLRAEDTAVYYCAKDQKYYDILTGYYRSTYYYYYYGMDVWGQGTTVTVSS
VL: not shown
B7: AB-009358 (antibody, V domains shown)
VH: QVHLVQSGAEVKKPGASVKISCKASGYTFTSYYVHWVRQAPGQGLEWMGIIKPSGAGTIYAQKFQGRVTMTRDTSTSTVYMELSSLISEDTAVYYCARGGGVTDRDYWGQGTLVTVSS
VL: QSALTQEASVSATVGQKVTLSCTGNTNNIGGYAVGWHQQISHGAPKTVMFGNSLPSGIPDRFSGSKSGTTASLIISGLQPEDEADYYCSTWDSSLGAVLFGGGTKLTVL
B8: AB-009734 (antibody, V domains shown)
VH: QVHLVQSGAEVKTPGASVRVSCKASGYTFTSHYMHWVRQAPGQGLEWMGLINPSGSGTAYPQHFQGRVTMTRDTSTTTDYMDLSSLRSEDTAMYFCARMERSGAFDLWGQGTMVTVSS
VL: EIVLTQSPGTLSLSPGERATLSCRASQTISSRYLAWYYQKPGQAPRLLIQGSSIRATGIPDRFSGSGSGTDFTLTISRLEPEDFAVYYCQHYGSSPPMYTFGQGTKLEIK
B9: AB-009661 (antibody, V domains shown)
VH: QVQLVESGGGVVQPGRSLRLSCAASGFTFSSYGMHWVRQAPGKGLEWVAVISYDGSNKYYADSVKGRFTISRDNSKNTLYLQMNSLRAEDTAVYYCAKDYGDYGGMDVWGQGTTVTVSS
VL: not shown

What follows are binders tested against SARS-CoV-2 native Spike (S) trimer (Acro Biosystems) (SARS-CoV-2), P0DTC2 (assay: ELISA on spike trimer). Conditions: remark: other sources report otherwise.

**Q.** For B1, which OD (450 nm) is on record?
**A.** 2.87 OD (450 nm)

**Q.** How did the OD (450 nm) turn out when B2 was run?
**A.** 2.55 OD (450 nm)

**Q.** For B3, which OD (450 nm) is on record?
**A.** 2.8 OD (450 nm)

**Q.** Which OD (450 nm) does the source give for B4 here?
**A.** 2.6 OD (450 nm)

**Q.** With B5 as the binder, how does the OD (450 nm) read?
**A.** 2.7 OD (450 nm)

**Q.** Which OD (450 nm) does the source give for B6 here?
**A.** 0.361 OD (450 nm)

**Q.** For B7, which OD (450 nm) is on record?
**A.** 2.76 OD (450 nm)

**Q.** Which OD (450 nm) does the source give for B8 here?
**A.** 3.57 OD (450 nm)

**Q.** How did the OD (450 nm) turn out when B9 was run?
**A.** 2.86 OD (450 nm)
